According to patent US20190218261A1, “TARGETED ENHANCED DNA DEMETHYLATION” (The Jackson Laboratory, priority 2016, published 2019):

Tests used:
[1] = test system: MLH1 protein in HEK293T cells; assay: Western blot of MLH1 protein with anti-hMLH1 monoclonal antibody; assay type: cell-based, human; details: HEK293T collected 3 day after transfection
Description: To determine the effect of Casilio-ME targeting on MLH1 protein synthesis, Western blot analyses were performed on total protein extracted from HEK293T transfected cells as well as untransfected HEK293 and AzaC-treated HEK293T cells using anti-hMLH1 monoclonal antibody. […] Casilio-ME-mediated induction of MLH1 synthesis is still remarkable and could be improved by, for example, tilling multiple guide RNAs to augment the range and efficiency of CpG demethylation to achieving better activation of hMLH1 expression.
Western blot analysis. Protein from cell extracts (30 μg) were separated by electrophoresis on 10% SDS-polyacrylamide gels and then transferred to nitrocellulose membranes at 100 V for 1 hour using Bjerrum Schafer-Nielsen Buffer with SDS. Blocked membrane in 5% Blotting-Grade Blocker (BioRad) in TBS-T were then incubated overnight at 4° C. with the indicated antibodies, and the protein bands were detected using Horseradish peroxidase-conjugated secondary antibodies and Clarity Western ECL Substrate according to manufacturer's instructions (BioRad). Gels were imaged using a G:Box (Syngene).

[2] = test system: hMLH1 expression (methylation-silenced hMLH1 promoter) in HEK293T cells; assay: hMLH1 mRNA levels by TaqMan qRT-PCR in transfected HEK293T cells; assay type: cell-based, human
Description: To test the system, HEK293T cells were transfected with Casilio-ME components including Ct or Nt-fusion TET1-effector and a combination of 3 or 2 sgRNAs. Relative levels of hMLH1 mRNA were determined in TaqMan assays by using RNA extracted from cells 60 hours post-transfection and GAPDH as endogenous control for normalization of qRT-PCR measurements.
Cell culture and transfection. HEK293T cells were cultivated in Dulbecco's modified Eagle's medium (DMEM)(Sigma) with 10% fetal bovine serum (FBS)(Lonza), 4% Glutamax (Gibco), 1% Sodium Pyruvate (Gibco) and penicillin-streptomycin (Gibco) in an incubator set to 37° C. and 5% CO2. When indicated cells were treated with 2.5 μM or 5 μM 5-Azacytidine (sigma) as indicated with a daily change of medium containing freshly diluted drug. Cells were seeded into 12-well plates at 150,000 cells per well the day before being transfected with 100 ng of dCas9 construct, 100 ng of modified sgRNA construct and 200 ng of PUF-fusion with Attractene transfection reagent according to manufacturer's instructions (Qiagen). In dCas9-direct fusion experiments, cells were transfected with 200 ng dCas9-fusion constructs and 200 ng of modified sgRNA constructs. Transfected cells were harvested 60 hours after transfection, or otherwise indicated, and cell pellets were used for extractions of RNA, genomic DNA and protein.
Quantitative RT-PCR analysis. Cells were harvested, washed with Dulbecco's phosphate-buffered saline (dPBS), centrifuged at 125×g for 5 min and then the flash-frozen pellets were stored at −80° C. RNA was extracted using RNeasy Plus Mini Kit according to the manufacturer's instructions (Qiagen). cDNA libraries were made using Applied Biosystems High Capacity RNA-to-cDNA kit with 200 ng to 1 μg of RNA. TaqMan gene expression assays (Applied Biosystems) were designed using GAPDH (Hs03929097, VIC) as endogenous control and hMLH1 (Hs00179866, FAM) as target. TaqMan Universal Master Mix II, with UNG (Applied Biosystems) was used for Quantitative PCR (qPCR), with 2 μl of diluted cDNA used for each reaction. Activation was analyzed with the Applied Biosystems ViiA7 instrument. Gene expression levels were calculated by “delta delta Ct” algorithm and normalized to control samples.
HEK293T cells were cultivated in Dulbecco's modified Eagle's medium (DMEM) (Sigma) with 10% fetal bovine serum (FBS) (Lonza), 4% Glutamax (Gibco), 1% Sodium Pyruvate (Gibco) and penicillin-streptomycin (Gibco) in an incubator set to 37° C. and 5% CO2. Cells were seeded into 12-well plates at 150,000 cells per well the day before being transfected with 100 ng of dCas9 construct, 100 ng of modified sgRNA construct and 200 ng of PUF-fusion with Attractene transfection reagent according to manufacturer's instructions (Qiagen). Transfected cells were harvested 3 days after transfection, or otherwise indicated, and cell pellets were used for RNA extractions.
Cells were harvested, washed with Dulbecco's phosphate-buffered saline (dPBS), centrifuged at 125×g for 5 min and then the flash-frozen pellets were stored at −80° C. RNA was extracted using RNeasy Plus Mini Kit according to the manufacturer's instructions (Qiagen). cDNA libraries were made using Applied Biosystems High Capacity RNA-to-cDNA kit with 200 ng to 2 μg of RNA. TaqMan gene expression assays (Applied Biosystems) were designed using GAPDH (Hs03929097, VIC) as endogenous control and hMLH1 (Hs00179866, FAM) as target. TaqMan Universal Master Mix II, with UNG (Applied Biosystems) was used for Quantitative PCR (qPCR), with 2 μl of diluted cDNA used for each reaction. Activation was analyzed with the Applied Biosystems ViiA7 instrument. Gene expression levels were calculated by “delta delta Ct” algorithm and normalized to control samples.

B1: GADD45A-PUFa-TET1(CD): GADD45A at N-terminus of PUFa-TET1(CD); SEQ ID NO:104 (protein)
chain: MTLEEFSAGEQKTERMDKVGDALEEVLSKALSQRTITVGVYEAAKLLNVDPDNVVLCLLAADEDDDRDVALQIHFTLIQAFCCENDINILRVSNPGRLAELLLLETDAGPAASEGAEQPPDLHCVLVTNPHSSQWKDPALSQLICFCRESRYMDQWVPVINLPERSRTGAATMIDGGGGSDPKKKRKVDPKKKRKVDPKKKRKVGSTGSRNDGGGGSGGGGSGGGGSGRAGILPPKKKRKVSRGRSRLLEDFRNNRYPNLQLREIAGHIMEFSQDQHGSRFIQLKLERATPAERQLVFNEILQAAYQLMVDVFGNYVIQKFFEFGSLEQKLALAERIRGHVLSLALQMYGSRVIEKALEFIPSDQQNEMVRELDGHVLKCVKDQNGNHVVQKCIECVQPQSLQFIIDAFKGQVFALSTHPYGCRVIQRILEHCLPDQTLPILEELHQHTEQLVQDQYGNYVIQHVLEHGRPEDKSKIVAEIRGNVLVLSQHKFASNVVEKCVTHASRTERAVLIDEVCTMNDGPHSALYTMMKDQYANYVVQKMIDVAEPGQRKIVMHKIRPHIATLRKYTYGKHILAKLEKYYMKNGVDLGDPKKKRKVDPKKKRKVGGRGGGGSGGGGSGGGGSGPAELPTCSCLDRVIQKDKGPYYTHLGAGPSVAAVREIMENRYGQKGNAIRIEIVVYTGKEGKSSHGCPIAKWVLRRSSDEEKVLCLVRQRTGHHCPTAVMVVLIMVWDGIPLPMADRLYTELTENLKSYNGHPTDRRCTLNENRTCTCQGIDPETCGASFSFGCSWSMYFNGCKFGRSPSPRRFRIDPSSPLHEKNLEDNLQSLATRLAPIYKQYAPVAYQNQVEYENVARECRLGSKEGRPFSGVTACLDFCAHPHRDIHNMNNGSTVVCTLTREDNRSLGVIPQDEQLHVLPLYKLSDTDEFGSKEGMEAKIKSGAIEVLAPRRKKRTCFTQPVPRSGKKRAAMMTEVLAHKIRAVEKKPIPRIKRKNNSTTTNNSKPSSLPTLGSNTETVQPEVKSETEPHFILKSSDNTKTYSLMPSAPHPVKEASPGFSWSPKTASATPAPLKNDATASCGFSERSSTPHCTMPSGRLSGANAAAADGPGISQLGEVAPLPTLSAPVMEPLINSEPSTGVTEPLTPHQPNHQPSFLTSPQDLASSPMEEDEQHSEADEPPSDEPLSDDPLSPAEEKLPHIDEYWSDSEHIFLDANIGGVAIAPAHGSVLIECARRELHATTPVEHPNRNHPTRLSLVFYQHKNLNKPQHGFELNKIKFEAKEAKNKKMKASEQKDQAANEGPEQSSEVNELNQIPSHKALTLTHDNVVTVSPYALTHVAGPYNHWVID
- MLH1 protein amount by Western blot (whole cell extracts) [1]: higher protein amounts
- enhancement of hMLH1 expression relative to PUFa-TET1(CD) alone ([2]; GADD45A two-in-one effectors, HEK293T, TaqMan): approximately 9 fold
- ranking of activation among GADD45A and TET1(CD) fusion configurations ([2]; methylation-silenced hMLH1): highest activity
